The nature of data set [1]: immunoprecipitation and phospho-S720 immunoblot. To be noted: glycan lost.
Data set [2] is described as follows: RagD GTP hydrolysis, GTP-agarose pulldown, glucose-starved cells. To be noted: glycan lost; control: overexpressed WT LARS1.
Data set [3] can be described thus: lysosomal fractionation, leucine added without glucose. To be noted: glycan lost; control: overexpressed WT LARS1.
The nature of data set [4]: lysosomal fractionation, knock-in cells, glucose starvation. To be noted: glycan lost; control: WT SW620 cells.
Data set [5] can be described thus: LARS1 immunoprecipitation, immunoblot, knock-in cells. To be noted: glycan lost; control: WT SW620 cells, glucose starvation. Background: A western blot detects proteins with antibodies after separation by electrophoresis.
The nature of data set [6]: in vitro GTPase assay, GTP-agarose pulldown. To be noted: glycan lost; control: unmodified WT LARS1 with ATP and leucine.
Data set [7] can be described thus: near-UV circular dichroism. To be noted: glycan lost; control: WT LARS1, same OGT1 condition. On the technique in general: Circular dichroism is widely used to follow secondary structure.
The nature of data set [8]: lysosomal fractionation, glucose starvation. To be noted: glycan lost; control: control siRNA.
Setting [9] is: control: control siRNA, glucose starvation.

“leucyl-tRNA synthetase 1 (LARS1): S1042A”: the “other: S720 phosphorylation by ULK1” value in data set [1] (control: overexpressed WT LARS1, glucose starvation) is “abolishes”. Also, the enzymatic_activity entry in data set [2] was “increases”. The localisation_or_trafficking result in data set [3] is given as “increases”. Consider “leucyl-tRNA synthetase 1 (LARS1): S1042A knock-in”, for which, in data set [4], the localisation_or_trafficking entry is “increases”. Also, in data set [5], the “other: S720 phosphorylation by ULK1” value is “decreases”.

Take “leucyl-tRNA synthetase 1 (LARS1): OGT1 siRNA”: the “other: S720 phosphorylation by ULK1” value in data set [1] (setting [9]) is “decreases”.

“leucyl-tRNA synthetase 1 (LARS1): S1042A ± OGT1”: the enzymatic_activity result in data set [6] was “no change”. Consider “leucyl-tRNA synthetase 1 (LARS1): S1042A without OGT1”, for which the structure_or_conformation entry in data set [7] is “no change”. Consider “leucyl-tRNA synthetase 1 (LARS1): S1042A with OGT1”, for which the structure_or_conformation result in data set [7] is reported as “changes”. With “leucyl-tRNA synthetase 1 (LARS1): GFPT1 siRNA”, the “other: S720 phosphorylation by ULK1” value in data set [1] (setting [9]) is reported as “decreases”. Further, the localisation_or_trafficking result in data set [8] was “increases”.
